B1: N/Z site (dsDNA)
DNA 1: TCTGCAAGGGTTCAGGCGTGGGCGGTAAG
DNA 2: CTTACCGCCCACGCCTGAACCCTTGCAGA
B2: N//Z site in luciferase reporter promoter (dsDNA)
DNA 1: AAGGGTTCAGTGCGTGGGCG
DNA 2: CGCCCACGCACTGAACCCTT
B3: N/Z site in luciferase reporter promoter (dsDNA)
DNA 1: AAGGGTTCAGGCGTGGGCG
DNA 2: CGCCCACGCCTGAACCCTT
B4: N//Z site (dsDNA)
DNA 1: TCTGCAAGGGTTCAGTGCGTGGGCGGTAAG
DNA 2: CTTACCGCCCACGCACTGAACCCTTGCAGA
B5: Z site in luciferase reporter promoter (dsDNA)
DNA 1: GCGTGGGCG
DNA 2: CGCCCACGC
B6: NZ site (dsDNA)
DNA 1: TCTGCAAGGGTTCAGCGTGGGCGGTAAG
DNA 2: CTTACCGCCCACGCTGAACCCTTGCAGA

Experiments:
[1] = target: T1, Zif268 (three-finger peptide) (UniProt P08046 P08046:333-421); test: EMSA; room temp
[2] = target: T1, Zif268 (three-finger peptide); test: cell_activity; 293 cells
[3] = target: T1, Zif268 (three-finger peptide); test: EMSA; pH 7.0, 100 mM NaCl, 5 mM MgCl2, Zn, room temp

Row | Binder | Kd [1] | activity [2] | further results
1 | B1 | 0.014 nM |  | 
2 | B2 |  | 15 fold repression | 
3 | B3 |  | 8.9 fold repression | 
4 | B4 | 0.014 nM |  | 
5 | B5 |  | 13 fold repression | 
6 | B6 |  |  | Kd [3]: 0.012 nM

— patent publication US6903185
